Data taken from the RNAGym collection of RNA variant scans (doi:10.1073/pnas.2313332121).

B1: TPR t1 (parent)
chain: GACCAAUCUGCCCUCAGAGCUCGAGAACAUCUUCGGAUGCAGAGGAGGCAGGCUUCGGUGGCGCGAUAGCGCCAACGUCCUCAACCUCCAAUGCAUCCCACCACAUGAUGAUGCCUGAAGAGCCUUGGUUUUUUG

Variants of: B1
Experiment: polymerase ribozyme fitness, log enrichment relative to wild type (log ratio); higher = more active; in vitro selection for triplet polymerase activity
Outline: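 Streptavidin-bead capture of gel-excised extended constructs, followed by RT-PCR, closed a single triplicate in vitro selection round. That round began by annealing PCR-built, transcribed mutant libraries of each subunit of a heterodimeric triplet polymerase ribozyme with a biotinylated primer, the partner subunit and triplets, then incubating them frozen at −7 °C. After Illumina sequencing of inputs and outputs, genotypes needed ≥10 input reads and ≥1 read per output. Fitness is the base-2 logarithm of genotype enrichment over wild-type enrichment, using inverse-variance-weighted replicate averages.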

Variant	polymerase ribozyme fitness (log ratio)
U9G C20U U87G	-0.825
U9G C40A G69A C76U C114A	-6.98
U9G C72G C86A	-1.02
U9C C13G	0.844
U9C G36A C85U C123A	0.00121
U9G G42U U55A	-1.32
U9G A74U	0.26
U9G G19U G45U C114A	1.58
U9C C79U	0.385
U9A U32C G36C	-0.0123
U9C G69A G77A	-2.73
U9G G63C	-0.0322
U9G G60U C62U C72G	-2.01
U9C A68G C86A C99A	-6.98
U9C G17A A18G G113U	-4.74
U9C G113A	-0.364
U9C G63U C104U	-0.467
U9C U112G	0.223
U9C U92G	-1.58
U9G U14A G52C	-0.345
U9C U14C U33G G51A G69U A118G	-5.88
U9G U38G U55C	-0.21
U9A U96G	-0.342
U9G A29U G39C	-3.86

Variant	polymerase ribozyme fitness (log ratio)
U9G A108G	-1.95
U9C U78C A83U A90G A121G	2.5
U9G G48U U87G C115G	0.077
U9G G35U C40A G93C C114U	-5.91
U9G C56A A66C C72U	-1.3
U9G G19U A46C C56U	-3.13
U9G C99U	-2.87
U9G U38G C70U A105U	-4.46
U9G G52U C80A G110U	-5.82
U9C C53G A105U	-1.72
U9G C104U C124U	1.88
U9C A68G	-2.42
U9G C56U C62U C94U U96A	-1.52
U9G U21A	-0.191
U9A U78C C86A A121C	2.18
U9G C62G C82A	-0.591
U9C G60A	0.405
U9C G122A	-0.428
U9G A43U G52U C72U C82A	-3
U9G A18C C40G A91C G93C C94A A105G	-5.58
U9C C72U C98U G120A	0.967
U9G C56A C79G	-1.55
U9C A16U G52U	-0.423
U9G C62A U92A C104U	-4.41

Variant	polymerase ribozyme fitness (log ratio)
U9C C11U U78C C82G A83U	-0.241
U9G G51C C56G C62U C80G A119U	-0.0854
U9C U38G G61C C101A	-3.61
U9G G39U	-0.00423
U9G C56U G65C A105U U109C	-6.39
U9C U32C U59G A121C G122U	0.733
U9G C56U C114A C115G	-5.74
U9G A43C	-1.01
U9G G35U	-4.99
U9G C88U G93C	-0.642
U9C C12G C28U C73U G110C	-1.73
U9G C94A U125G	-1.1
U9C C49A C86U C94A G113A	-1.52
U9G U14A G77U U92G C124U	-3.63
U9G C40U C114G G122A C123G	-5.42
U9C G19U U81C U130C	-3.09
U9G C76U	0.331
U9C C11U C101A	-0.843
U9G U14A	-0.133
U9G G77U C123U	1.93
U9C C31A G44A G47U G69U C88U A118U U133G	-4.68
U9A U32A A37U A46C C56A A111G	-4.29
U9G G57A U112A C123U G128A	-3.19
U9G G39A G57A C114G G117A	-6.32

Variant	polymerase ribozyme fitness (log ratio)
U9G G45U	-0.0404
U9C G117A	0.892
U9G A18C C56G C72A G120A U130A	-2.29
U9G C34G A121U	-4.18
U9G G61U G77A C97G U130C	-5.47
U9C G39C G128C	-1.84
U9A U116C	0.0652
U9G A26G C70G A84U U112A	-4.4
U9C G10A G93A	-0.147
U9A U33G G36U U38G C53G C115G	-7.69
U9G G69C	-2.16
U9G G69A	-2.25
U9C G58A A100U	-0.581
U9C A41C A91C	-1.02
U9C C73A C85G	-0.637
U9C C11U G47C U96G	-3.05
U9G C15G U81A U109G G127C	-5.35
U9C G60U C62U U78G C80A U112C	-1.95
U9G G19A A37U C70U U78A	-4.73
U9G U14C G51A C56U C80A	-3.92
U9G A95C	-1.41
U9G C94A	-0.976
U9G G71U A84G C89G U112G	-7.39
U9C C80U A91G	-0.111

Variant	polymerase ribozyme fitness (log ratio)
U9G A27G A37U	-0.779
U9G A26U	-2.33
U9G A37U A43U C73A C98A C124A	-7.17
U9C U130G	-0.0168
U9G A29G	-1.35
U9G C70G	-2.02
U9G C70A	-1.08
U9G C80U C98U G110U	-3.68
U9C A41C C53G A68G C73U	-5.47
U9C C98G	-5.05
U9C C20A A37G G47A U87G G120A G122U	-3.6
U9G G69U C73U U106C	0.373
U9G C34U A103U	-4.66
U9C A41C U87C C114U	-0.644
U9G C70U U81C G110U	-3.84
U9G U54G G58C C73U	-0.715
U9C G47C U132C	-1.22
U9C G60A U130A	0.434
U9C G120C	1.46
U9G G36U G60C U78A C88A	-1.68
U9C C101G C104U U116C	-2.48
U9G C72U C102A G122A U125A	-1.75
U9G C20A U54C C76U G128C	-5.03
U9G A26U G39U U78C C82G	-4.7

Variant	polymerase ribozyme fitness (log ratio)
U9G C86A C114A	-0.649
U9G C62A	-0.542
U9G G10A U14G A46G G48A A66G C70U	-4.44
U9C A26G A27U U54A A74G C82G	-6.24
U9C A29U U129A	-2.08
U9C C40G G69A C101U	-2.3
U9G C13U C89A G107A C114U	-1.8
U9G C12A U54A G93A	0.0472
U9C C28G G52U	-3.99
U9G A37U C40U G45A C72U C104U	-0.789
U9G G63C G71U C79A	-5.4
U9C C56G C62G	-3.04
U9G C12A U14C G44C G63A G77A G93A	-2.85
U9G U38G A105U	-2.64
U9G A46U U55G A103C	-4.6
U9C G69U G71U U92A	-3.04
U9C G19A U32A C88U C123A	-5.37
U9G G60A U92G	-2.36
U9C C72A A83U A90G U131C	0.697
U9C G39U G48A C53G A91G	-2.06
U9C C40G U55A C76A C88G	-4.6
U9C C13A C102U A111C	-0.646
U9C A41G G45U C82U C85G	-4.04
U9G G110C	-4.11

Variant	polymerase ribozyme fitness (log ratio)
U9C U78G U81A	-0.22
U9G G35U A111U	-6.59
U9G A27U	-3.6
U9C G71A	0.0862
U9G G10U C104A	-1.09
U9C C49A A91C C104U	-1.34
U9G C11A C70A U87A	-2.04
U9C U112A C114G	0.928
U9C G10A	0.0311
U9G G42A C53G	-2.45
U9C G69C	-0.746
U9C A41C C53G	-0.677
U9G A18U C40U	-0.788
U9C G10C G17A G63A U81C U92A C94U U109G A119G	-7.69
U9G A50C	-0.315
U9C G57U C114U G128C U130C	-1.68
U9C G23U C31U A41G G52A C82G A83C A121C	-6.19
U9G C20A U59A	-3.12
U9C C49A C85U G120C	1.08
U9G A24G	-0.443
U9G C72A A95G	0.389
U9G G61C	-1.59
U9G G42U G45C U92G U129A	-6.64
